Source: patent US20230357407A1

Target: huTIM-3 Fc (R&D; cat.no. 2365-TM) (human) (UniProt Q8TDQ0)
Assay: Galectin-9 blocking ELISA: coated Galectin-9 (competitor), 0.1875 ug/ml huTIM-3 Fc with negative control antibody; signal is huTIM-3 Fc bound

Sequence of huTIM-3 Fc (R&D; cat.no. 2365-TM) (human) (Q8TDQ0 22-200 limits assumed): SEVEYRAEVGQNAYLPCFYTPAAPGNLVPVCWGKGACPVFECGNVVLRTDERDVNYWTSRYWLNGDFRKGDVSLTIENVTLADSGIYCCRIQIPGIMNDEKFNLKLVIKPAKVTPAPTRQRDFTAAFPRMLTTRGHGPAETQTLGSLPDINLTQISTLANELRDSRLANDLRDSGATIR

negative control antibody (Ctrl mAb) showed an OD of 1.15 OD450.
